Laboratory results published in patent US20090325867A1, “RECEPTOR-SPECIFIC TUMOUR NECROSIS FACTOR-RELATED APOPTOSIS-INDUCING LIGAND (TRAIL) VARIANTS” (MEDICAL RESEARCH COUNCIL, priority 2005, published 2009).
“Also recorded” adds a separate entry of the source.

Tests used:
Type in all cases: cell-based
[1] = test system: Ramos cells; assay: Apoptosis by phosphatidylserine (PS) externalization in Ramos cells; conditions: for % PS+ cells, Ramos: 4 h exposure, 500 ng ml^−, Mean ± SEM of at least three determinations; for ability to induce apoptosis in Ramos cells (in words): PS externalization, compared with wt TRAIL
Experimental: (§1) Cells were also exposed to HGS-ETR1 or HGSETR2 (1 μg ml^−1). C: Ramos or Jurkat cells were pre-incubated for 30 min either alone or with TRAIL-R1 blocking Ab or TRAIL-R2 neutralizing Ab (5 μg ml^−1). […] D: Ramos and Jurkat cells were exposed to wt TRAIL or TRAIL mutants as described above and processing of caspase-3 and -8 determined by Western blot analysis. The asterisk indicates a non-specific band. The lower panel of the blot for detection of the caspase-8 p18 subunit was exposed for twice as long as the upper panel. Apoptosis was assessed by phosphatidylserine externalization and results expressed as the Means±SEM of at least 3 separate determinations.
(§2) Ramos, an Epstein-Barr virus-negative Burkitt's lymphoma cell line, and Jurkat T cells (clone E6-1) were cultured as described (MacFarlane et al (2005 Cell Death and Differentiation vol 12 pages 773-782)). Blood samples were obtained from CLL patients, with patient consent and local ethical committee approval and CLL cells purified as described (MacFarlane et al (2002 Oncogene 21, 6809-6818). Cells were incubated for 16 h with depsipeptide (10 nM), provided by Dr. E. Sausville (NCI, USA). Cells were then cultured for a further 6 h with either HGSETR1 or HGS-ETR2, agonistic mAbs to TRAIL-R1 or -R2, respectively (Human Genome Sciences, Rockville, Md.), His-TRAIL-LE (a recombinant TRAIL with low endotoxin—Alexis Corporation, Nottingham, UK), His-TRAIL, a similar form of human recombinant TRAIL (MacFarlane et al (1997 J Biol Chem 272, 25417-25420)) but not further purified to reduce endotoxin levels or a mutant form of His-TRAIL as described (MacFarlane et al., 2005 ibid.). Cell lines were also pre-incubated for 30 min with a TRAIL-R1 blocking Ab and a TRAIL-R2 neutralizing Ab from Alexis and R&D systems, respectively, prior to exposure to TRAIL. Freshly isolated cells from patients with MCL were isolated, purified and incubated with different forms of TRAIL as described above for CLL cells. Samples were either analyzed immediately for apoptosis or stored at −80° C. for subsequent Western blotting. Other methods and reagents were as described (Inoue (2004 Cell Death Differ 11 Suppl 2, S193-206); MacFarlane et al., 2005 ibid).
(§3) Apoptosis was quantified by phosphatidylserine (PS) externalization in the presence of propidium iodide as described (MacFarlane et al., 2002 ibid.). Samples for Western blot analysis were prepared and caspase processing detected as described (Inoue et al., 2004 ibid.; MacFarlane et al., 2005 ibid.).
Ramos and Jurkat T cells (clone E6-1) were cultured as described (MacFarlane et al, 2005 ibid.). The breast tumour cell line, MCF-7 (clone F43) was cultured as described previously (MacFarlane et al., 2000 J. Cell Biol. 148, 1239-1254). Cells were cultured for either 4 h (Ramos and Jurkat) or 6 h (MCF-7) with His-TRAIL (MacFarlane et al, 1997 J Biol Chem 272, 25417-25420), HGS-ETR1 or HGS-ETR2 (Human Genome Sciences), or a mutant form of His-TRAIL (MacFarlane et al, 2005 ibid.). Samples were analyzed for apoptosis, Western blotting, or TRAIL DISC activation as described (MacFarlane et al, 2005 ibid.; MacFarlane et al. 2002 Oncogene 21, 6809-6818). Mutants of His-TRAIL (residues 95-281) were generated using the Quik-Change site-directed mutagenesis kit (Stratagene, Calif.), confirmed by DNA sequencing, expressed in E. coli and purified as described (MacFarlane et al, 1997 ibid.). For siRNA targeting of TRAIL-R1/-R2, MCF-7 cells were seeded into six-well plates immediately prior to effectene-mediated RNAi transfection with either a negative control siRNA (30 nM, Ambion, #4611), or preannealed siRNA oligonucleotides for TRAIL-R1 or TRAIL-R2 (30 nM, Ambion), with the sequence and validity described (Ren et al, 2004 Mol. Biol. Cell vol 15 pp 5064-5074). After 40 h of transfection the cells were collected and total TRAIL-R1 or TRAIL-R2 levels assessed. […]

[2] = test system: Jurkat cells; assay: Apoptosis by phosphatidylserine (PS) externalization in Jurkat cells; conditions: for % PS+ cells, Jurkat: 4 h exposure, 500 ng ml^−, Mean ± SEM of at least three determinations; for ability to induce apoptosis in Jurkat cells (in words): PS externalization, compared with wt TRAIL
Experimental: as §1, with “determinations. […]” for “determinations.”
as §3
Ramos and Jurkat T cells (clone E6-1) were cultured as described (MacFarlane et al, 2005 ibid.). The breast tumour cell line, MCF-7 (clone F43) was cultured as described previously (MacFarlane et al., 2000 J. Cell Biol. 148, 1239-1254). Cells were cultured for either 4 h (Ramos and Jurkat) or 6 h (MCF-7) with His-TRAIL (MacFarlane et al, 1997 J Biol Chem 272, 25417-25420), HGS-ETR1 or HGS-ETR2 (Human Genome Sciences), or a mutant form of His-TRAIL (MacFarlane et al, 2005 ibid.). Samples were analyzed for apoptosis, Western blotting, or TRAIL DISC activation as described (MacFarlane et al, 2005 ibid.; MacFarlane et al. 2002 Oncogene 21, 6809-6818). Mutants of His-TRAIL (residues 95-281) were generated using the Quik-Change site-directed mutagenesis kit (Stratagene, Calif.), confirmed by DNA sequencing, expressed in E. coli and purified as described (MacFarlane et al, 1997 ibid.). For siRNA targeting of TRAIL-R1/-R2, MCF-7 cells were seeded into six-well plates immediately prior to effectene-mediated RNAi transfection with either a negative control siRNA (30 nM, Ambion, #4611), or preannealed siRNA oligonucleotides for TRAIL-R1 or TRAIL-R2 (30 nM, Ambion), with the sequence and validity described (Ren et al, 2004 Mol. Biol. Cell vol 15 pp 5064-5074). After 40 h of transfection the cells were collected and total TRAIL-R1 or TRAIL-R2 levels assessed. Where indicated, RNAi transfected MCF-7 cells were either left untreated or exposed to wt-TRAIL and apoptosis assessed by the extent of Bax activation, determined using the conformation specific Bax MAb, clone 3 (Dewson et al, 2003 Oncogene vol 22 pp 2643-54).

[3] = target: T1, TRAIL-R1 (DR4) (Homo sapiens, UniProt O00220); assay: TRAIL-R1 selective apoptotic signalling (Ramos versus Jurkat cells); conditions: from apoptosis in Ramos (TRAIL-R1) and Jurkat (TRAIL-R2) cells
T1 construct: Ramos and Jurkat cells, which signal predominantly through TRAIL-R1 and TRAIL-R2, respectively; endogenous in cells; host or cells: Ramos cells (Jurkat cells as TRAIL-R2 comparison)
Description: Another test involves the assay of the effect in R1- (DR4-) only cells. This is the preferred test for DR4 selectivity as discussed herein. Preferably the ligand is applied to an R1-only signalling cell. Preferably the cell is a Ramos cell. Preferably the read-out is functional activity, preferably death-inducing activity (apoptosis). This is crucial to the test—mere binding is not as robust an indicator as functional induction of death. Thus, preferably a DR4 selective ligand according to the present invention induces death in a DR4 only signalling cell, such as a Ramos cell.
as §2, §3
Referring to FIG. 4: Ramos cells (A) and Jurkat cells (B) were cultured with increasing concentrations of Arg191Leu or Asn199Val single mutants of His-TRAIL ([…]) or His-TRAIL (500 ng/ml), ETR1 or ETR2 (1000 ng/ml) for 4 h. Apoptosis was quantified by measuring the % PS+ cells and results shown in FIG. 4 are the Mean±SEM of three independent experiments. Thus the biological importance TRAIL residues R191 and N199 in TRAIL-R1 selectivity is shown.

Row | Molecule | % PS+ cells, Ramos [1] [%] | ability to induce apoptosis in Ramos cells (in words) [1] | % PS+ cells, Jurkat [2] [%] | ability to induce apoptosis in Jurkat cells (in words) [2] | receptor selectivity of apoptotic activity (in words) [3]
1 | TRAIL.R1-4: 6His TRAIL 95-281 with 199Val, 201Arg, 213Trp and 215Asp (protein) TSEETISTVQEKQQNISPLVRERGPQRVAAHITGTRGRSNTLSSPNSKNEKALGRKINSWESSRSGHSFLSNLHLRNGELVIHEKGFYYIYSQTYFRFQEEIKEVTRNDKQMVQYIYKWTDYPDPILLMKSARNSCWSKDAEYGLYSIYQGGIFELKENDRIFVSVTNEHLIDMDHEASFFGAFLVG | 43.5 ± 2.5 | retained the activity of wt TRAIL | 25.0 ± 2.6 | decreased activity; also recorded: lost some activity | good R1 selective activity; also recorded: a degree of selectivity for TRAIL-R1
2 | TRAIL.R1-5a: His-TRAIL (95-281) with 189Ala, 199Val, 201Arg, 213Trp, 215Asp (protein) TSEETISTVQEKQQNISPLVRERGPQRVAAHITGTRGRSNTLSSPNSKNEKALGRKINSWESSRSGHSFLSNLHLRNGELVIHEKGFYYIYSQTAFRFQEEIKEVTRNDKQMVQYIYKWTDYPDPILLMKSARNSCWSKDAEYGLYSIYQGGIFELKENDRIFVSVTNEHLIDMDHEASFFGAFLVG | 18.9 ± 0.7 | markedly diminished activity | 6.6 ± 0.4 | complete inactivity | 
3 | TRAIL.R1-1: His-TRAIL (95-281) with single substitution Tyr189Ala (protein) TSEETISTVQEKQQNISPLVRERGPQRVAAHITGTRGRSNTLSSPNSKNEKALGRKINSWESSRSGHSFLSNLHLRNGELVIHEKGFYYIYSQTAFRFQEEIKENTKNDKQMVQYIYKYTSYPDPILLMKSARNSCWSKDAEYGLYSIYQGGIFELKENDRIFVSVTNEHLIDMDHEASFFGAFLVG | 30.6 ± 2.9 | decreased ability to induce apoptosis | 24.9 ± 2.2 | decreased ability to induce apoptosis | 
4 | TRAIL.R1-2: His-TRAIL (95-281) with 213Trp and 215Asp (Y213W;S215D) (protein) TSEETISTVQEKQQNISPLVRERGPQRVAAHITGTRGRSNTLSSPNSKNEKALGRKINSWESSRSGHSFLSNLHLRNGELVIHEKGFYYIYSQTYFRFQEEIKENTKNDKQMVQYIYKWTDYPDPILLMKSARNSCWSKDAEYGLYSIYQGGIFELKENDRIFVSVTNEHLIDMDHEASFFGAFLVG | 42.2 ± 3.1 | very similar activity to wt TRAIL | 46.6 ± 3.1 | very similar activity to wt TRAIL | neither specific for TRAIL-R1 nor R2; also recorded: did not show any differential effects
5 | TRAIL R191L: Arg191Leu single mutant of His-TRAIL (protein) TSEETISTVQEKQQNISPLVRERGPQRVAAHITGTRGRSNTLSSPNSKNEKALGRKINSWESSRSGHSFLSNLHLRNGELVIHEKGFYYIYSQTYFLFQEEIKENTKNDKQMVQYIYKYTSYPDPILLMKSARNSCWSKDAEYGLYSIYQGGIFELKENDRIFVSVTNEHLIDMDHEASFFGAFLVG |  |  |  |  | TRAIL-R1 selective
6 | TRAIL N199V: Asn199Val single mutant of His-TRAIL (protein) TSEETISTVQEKQQNISPLVRERGPQRVAAHITGTRGRSNTLSSPNSKNEKALGRKINSWESSRSGHSFLSNLHLRNGELVIHEKGFYYIYSQTYFRFQEEIKEVTKNDKQMVQYIYKYTSYPDPILLMKSARNSCWSKDAEYGLYSIYQGGIFELKENDRIFVSVTNEHLIDMDHEASFFGAFLVG |  |  |  |  | TRAIL-R1 selective
